The nanobody polyreactivity screen of Harvey et al. (2022)

Assay: yeast display, Sf9 membrane polyspecificity reagent, FACS + sequencing; frameworks hold sequencing errors
Procedure, shortened: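 Polyreactivity labels are assigned by the sorting gate from which each nanobody was recovered. The gates were low and high (top ~1%), set on anti-HA fluorescence for expression and streptavidin fluorescence for reagent binding. Before sorting, galactose-induced (36–48 hours) yeast display cells were stained for 1 hour at 4 °C with 10% biotinylated, detergent-solubilized Sf9 membrane reagent.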

Row | Sequence | polyreactivity (PSR sort gate)
1 | QVQLQESGGGLMQAGGNLRLSCAASGYISTNDDMDWYRQAPGKERELVARIDDGAITNYADSVKGRFTISRDNAKKTVYLQMNSLKPEDTAVYYFAVYSGDDYYHDYWGQGTQVTVSS | low polyreactivity
2 | QVQLQESGGGLMQAGGSQRLSCAASGSISYYSDMGWYRQSPGKEREFVAGIGYGTTTNYADSVKGRFTTSRDNAKNTVYLQMISMKPEDTAVYYCAAYQGNGYEFYYWGQGTQVTVRS | low polyreactivity
3 | QVQLQESGGGLMQAGGSQRLSCAASGSITYYSDMGCYRQAPGKELEFVAAIGYGTTTNYADSVKGRFTTSRDNAKYTVYLQMISMKPEDTAVYYCAAYQGKGYEFYYWGQGTQVTVRS | low polyreactivity
4 | QVQLQESGGGLVKAGGSLRLSCAASGSIFYWPWMGWYRQAPGREREFVATITTGSNTYYADSMKGHLTISRDNARNTVYLQMNSLKPEDTAVYYCAVVGDGELEHRYWGQGTQVTVSS | high polyreactivity
5 | QVQLQESGGGLVLAGGSLRLSCSASGNISVYGSMGWYRQAPGKEREFVATIDPGTNTNYADSVKDRFTISRDNAKNTVYLQMNSLKPEDTAVYYCAVEAGSDWLYRYWGQGTKVTVSS | low polyreactivity
6 | QVQLQESGGGLVNAGGSLRLSCAASGTISFINMMGWYRQAPGRERELVASINFGANTNYADSVKGRFTISRDNAKNTVYLQMNSLKPEDTAVYYCAVYDFDAYTLYYWGQGTLVTVSS | high polyreactivity
7 | QVQLQESGGGLVQACGSQRLSCAASGSISEGQDMGWYRRAPGKEREFVAGIAPGATTYYADSVKGRFTISRDNAKNTVYLQMNSLKPEDTAVYYCAARSVTETDHDYWGQVTQVTVSS | low polyreactivity
8 | QVQLQESGGGLVQADGSLRLSCAASGSIFGYYYMGWYRQAPGKDRDLVATINICGITNYADSVNGRFTISRDNAKYTVYLQMNSLKPDDTAVYYCAADEFDQRDLGYWGQGTQVSVSS | low polyreactivity
9 | QVQLQESGGGLVQAGGCLSCTASGTIFGQGDMGWYRQAPGKERELVATINVGASTYYADSVKGRFTISRDKAKNTVYLQKNSLKPDDTAVYYCAVFTDITTYFGYWGQGTQVTVSS | low polyreactivity
10 | QVQLQESGGGLVQAGGDLRLSCAASGNIFRDYIMGWNPQAPGKEREFVAGIDRGANTNYADSVKGRFTISRDNAKNTVYLQMNSLKPEDTAVYYCAVHTAIVPDFIYWGQGTQVTVSS | low polyreactivity
11 | QVQLQESGGGLVQAGGILRRSCAACGNIFPSAVMGWYRQALGKEREFVATINSGSNTYYADSVKGRFTISRDNAKNTVYLQMNSLKLEDTAVYYCAAYFKLPAWHTYWGQGTQVTVSS | low polyreactivity
12 | QVQLQESGGGLVQAGGSLCLSCAASGTIFFDGDMGWNRQAPGKEREFVAAINPGGSAYYADSVKGRLPLAAITHTVYMQMYSLKPEDTAVYYCEAILFDVYGYYYWGQGTNVTVSS | low polyreactivity
13 | QVQLQESGGGLVQAGGSLLICAASGTISWVDEMGWYRQAPGNERELVAGIAGGGNTNYADSVKGRYTISRDNAKNTVYLEMNSLDTAVYYCAVVGFGRGTHIYWGQGTQVTVSS | high polyreactivity
14 | QVQLQESGGGLVQAGGSLLLSCAASGSSYDDTYMGWYRQAPGKERELVATIDSGSTTNYADSVKGRNTISRDNAKYTLYLQMNSLKPEDTAVYYCAAADSHIDYFDYWGQGTQVTVSS | low polyreactivity
15 | QVQLQESGGGLVQAGGSLLSCAASGTISSYREMGWYRQAPGKELELVAGIGVGTITYYADSVKGRFTISRDNAKNTVYLQMNSLKPEDTAVYYCAAHIDGNDSHAYWGQGTQVTVSS | low polyreactivity
16 | QVQLQESGGGLVQAGGSLLSCAASGTISWVDEMGWYRQAPGNERELVAGIAGGGNTNYADSVKGRYTISRDNAKNTVYLQMNSLDTAVYYCAVVGFGRGTHIYWGQGTQVTVSS | high polyreactivity
17 | QVQLQESGGGLVQAGGSLRLGCAASGNISDAGYMGWYRQAPGKEREFVAAIAAGSNTNYADSVKGRFTISRDNAKNTVYLQMNSLKPEDTAVFYCAVGSYARVQYEYWGQGTQVTVNS | low polyreactivity
18 | QVQLQESGGGLVQAGGSLRLRCAASGYISAGRQMGWYRQGPGKEREFVATINGGATTNYADSVKGRFTISRDNAKNSVYLQMNSLKPEDTAVYYCAVRTYIYDIHRYWGQGTQVTVSS | high polyreactivity
19 | QVQLQESGGGLVQAGGSLRLSCAASCTISQEDWMGSYRQAPGKEREFVAAIGLGSNTNYADSLKGRFTISRDNAKNTVYLQMNSLKPEDTAVYYCAVSVWQYSDHVYRGQGTQVTVSS | low polyreactivity
20 | QVQLQESGGGLVQAGGSLRLSCAASCTISQEDWMGWYRQAPGKEREFVAAIGLGSNTNYAESLKGRFTISRDNAKKTVYLQLHSLKPEDTAVYYCAVSVWQYSDHVYGGQGTQVTVSS | low polyreactivity
21 | QVQLQESGGGLVQAGGSLRLSCAASGNIFDADIMGWYRQAPGKERELVASITDGGSTNYADSVKGRFTISRDNAKNTLYLQLISLYPDDTGVYYCAAIAYPDIPTYFDYDSDYFYWGQGTQVTVSS | high polyreactivity
22 | QVQLQESGGGLVQAGGSLRLSCAASGNIFPTVSMGWYRQAPGKEREFVVTIDPGSNTYYADSAKGRFTISRDNAKNTVYLQMNSPKPEDTAVYYCAVVFADWATYGYWGQGTQVTVSS | high polyreactivity

Row | Sequence | polyreactivity (PSR sort gate)
23 | QVQLQESGGGLVQAGGSLRLSCAASGNISSYYRMGSYRQAPGKEREFVATIAVGGTTNYADSVKGRFTISRDNAKNTVYLQMNSLKPEDTAVCFCAANSTQYTWFDYWGQGTQVPVSS | low polyreactivity
24 | QVQLQESGGGLVQAGGSLRLSCAASGNISVTGFMGWYRQAPGKERELVASIGIGGTTYYADSVKGRFSISRDNAKNTVYLQMNSLKPEDTAVYYCAARVIYYYGSGPYDYWGQGTQVTVSS | low polyreactivity
25 | QVQLQESGGGLVQAGGSLRLSCAASGNIVDADIMGWYRQAPGKEREIVASITDGGSTNYADSLKGRFTISRDHAKNTVYQQMNRLLPEDTAVYYCAAIAYPDIPTYFDYDSDYFYWGQGTQETVSS | high polyreactivity
26 | QVQLQESGGGLVQAGGSLRLSCAASGNIYDADIMGWYRQAPGKERELVTSITDGGSTNYADSVKGRFTISRDNAKNTVYLQMNSLKPEDTAVYYCAAIAYPDIPTSFDYNTDYSYWGQGTQVTVSS | low polyreactivity
27 | QVQLQESGGGLVQAGGSLRLSCAASGSIFKVVDMGLYRQAPAKEREFVATIGEGGNTYYADSVKGRFTISRDNAKNTVYLQMNSLKPEDTAVYYCNVDIGVYAYESDYWGQGTQVTVSS | low polyreactivity
28 | QVQLQESGGGLVQAGGSLRLSCAASGSIFQLHIMCWYRQAPGKERESVAAISYGTSTYYADSVKGRFTICRDNAKNTVYLQMNSPKTDDTAVYYCAALFLVSKHHHYWGEGTQVTVSS | low polyreactivity
29 | QVQLQESGGGLVQAGGSLRLSCAASGSIFYEFYMGWYRQAPGKERELVAAIANGASTYYADSVKGRFTISRDNSKNTVYLQMSSLKPEDTAVYYCAVNTTSDIDYIYWGQGTQVNVSS | low polyreactivity
30 | QVQLQESGGGLVQAGGSLRLSCAASGSITHYIFMGWYRQAPGKEREFVAGIGYGGTTNYADSVKGRFTISRDNAINTVYLQMNSLKPEDTAMYYCAAREATEFYLYYWGQGTQVTVSS | low polyreactivity
31 | QVQLQESGGGLVQAGGSLRLSCAASGSIYVSVTMGWYRQAPGKERELVASIGRGSTTNHADSVKGRFTISRDNAKNIVYLLMNSLKPEDTAVYYCAALESYGKYHGYWGEGTQVTVSS | low polyreactivity
32 | QVQLQESGGGLVQAGGSLRLSCAASGSSFEELDMGWYRQAPGKEREFVAAIGTGSTTYYADSVKGRLTISRDNAKNTVYLQMNSLKPEDTAVYYCAVDTWARAYLGYWGQGTQVTVSS | high polyreactivity
33 | QVQLQESGGGLVQAGGSLRLSCAASGTIFRFRYMGWHRQAPGKERELVAGINGGTTTYYADSVIGRFTISRDNAKKSVYLQMNSLKPDDTAVYNCAAGASRLTYYDYWGQGTQVTVSS | low polyreactivity
34 | QVQLQESGGGLVQAGGSLRLSCAASGTISDSGLMGWYRQAPGKERELVAGISSGGITNYADSVKGRFTISRDIAKNTVYLQMNSLKPEDTAVYWGQGTQVTVSS | low polyreactivity
35 | QVQLQESGGGLVQAGGSLRLSCAASGTISDSGLMGWYRQAPGKERELVAGISSGGITNYADSVKGRFTISRDNAKKTVYLQMNSLKPEDTAVYWGQGTQLTVSS | low polyreactivity
36 | QVQLQESGGGLVQAGGSLRLSCAASGTISQEDWMGWYRQAPGKEREFVAAIGLGSNTNYADSLKGRFTISRDNAKNTVYLQMNSLKPEDTAVYYCAVSVWQYSDNVYRGQGTQVTVSS | low polyreactivity
37 | QVQLQESGGGLVQAGGSLRLSCAASGTISQEDWMGWYRQAPGKEREFVAPIGLGSNTNSADSLKGRFTISRDNAKNTVYLHMNSLKPEDTAVYYCAVCVWQYSDHVYRGQGTQVTVSS | low polyreactivity
38 | QVQLQESGGGLVQAGGSLRLSCAASGTISVHASMGWYRQAPGKERELVAGITDGANTYYADSVKGRFTISRDNSKNTVYMQKNSLKPEDTAVYYCAAYYGTEVHFTYWGQGTQVTVSS | low polyreactivity
39 | QVQLQESGGGLVQAGGSLRLSCAASGTISYGSVMGWYRQAPGKERELDAGIGYGSTTNYADSVKGRFTISRDNAKNTVYLQMNSLKPDDTAVYYCARDLYYVYSFAPYRYEYWGHGTQVTVSS | low polyreactivity
40 | QVQLQESGGGLVQAGGSLRLSCAASGYISFSGYMGRYRQAPGKEREFVDSITPGRSTYYADSVKGRFTISRDNAENTVYLQMNSLQPEDTAVDYCAADDSRTEQHAYWGQGTQVTVRS | high polyreactivity
41 | QVQLQESGGGLVQAGGSLRLSCAASGYISHADEMGWYRKAPGKEHELVASISNGGSTNYADSVKGRFTISRDNAKNTVYLQMNSLKSEDTAVYYCAAWTGQVDIHYYWGMGTQVTVSS | low polyreactivity
42 | QVQLQESGGGLVQAGGSLRLSCAASGYISHADEMGWYRQAPGKEHELVASISNGGSTNYADSVKGRFTIRRDNAKNTVYLQMNSLKSEDTAVYYCAAWTGQVDIHDSWGQRTQVTVSS | low polyreactivity
43 | QVQLQESGGGLVQAGGSLRLSCAASGYISHADEMGWYRQAPGKEHELVASISNGGSTNYADSVKGRFTISRDNAKNTVFLQMNSLKSEDTAVYYCAAWTGQVDIHYYWGQGTQVTVSS | low polyreactivity
44 | QVQLQESGGGLVQAGGSLRLSCAASGYISHADEMGWYRQAPGKEHELVASISNGGSTNYADSVKGRFTISRDNANNTVYLQMNSLKSEVTAVYYCAAWTGQVDIHYYWGQGTQVTVSS | low polyreactivity
